{"source": "the nanobody polyreactivity screen of Harvey et al. (2022)"}
{"test": "yeast display, Sf9 membrane polyspecificity reagent, FACS + sequencing; frameworks hold sequencing errors", "procedure,_shortened": "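Genes from sorted yeast were amplified by colony PCR, read by MiSeq 2 × 250 sequencing and filtered on CDR length. These cells carried a synthetic nanobody library in Saccharomyces cerevisiae BJ5465 and were sorted by FACS into low and high (top ~1%) gates on anti-HA and streptavidin fluorescence. Polyreactivity is labelled according to the gate of origin.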"}
{"sequence": "QVQLVESGGGLVQAGGSLRLSCAASGFIFYVYAMGWYRQAPGKERELVAAISADGGITYYADSVKGRFTISRDNAKNSVYFQMNSLKPEDTAVYYCNTLGDQDAYAGFRLDYWGQGTQVTVSS", "polyreactivity (PSR sort gate)": "low polyreactivity"}
{"sequence": "QVQLVESGGGLVQAGGSLRLSCAASGNIFATYAMGWYRQAPGKERELVAAIRSGGNTNYADSVKGRFTISRDNAKNTVYLQMNSLKPEDTAVYYCNAYKIFYGYIRYNYWGQGTQVTVSS", "polyreactivity (PSR sort gate)": "high polyreactivity"}
{"sequence": "QVQLVESGGGLLQAGGSLRLSCAATGFIFWYYAMGWYRQAPGKEREFVADISSGGSTNYADSVKGRFTISRDNAKNTVYLQMNSLKPEDTAVYDCSKDNYPYHSTVLAVIYDYWGHGTQVTVSS", "polyreactivity (PSR sort gate)": "low polyreactivity"}
{"sequence": "QVQLVESVVGLVQPRGSLRLSSASSGRTFRQYAMGRYRQAPGKERDLVAAIRTNGGRTYYADSVKGRFTISRDNAKNTVYLQMNSQKPEDTAVYYCAVYAFVQGVLFDYWGQGTQVTVSS", "polyreactivity (PSR sort gate)": "high polyreactivity"}
{"sequence": "QVQLVESGRGLVQAGGSLRLSCAASGSTLYAYAMGWYRQAPGKESELVAAIRRGGRTNYADSVKGRFTISRDNAKNTVYLQMNSLKPEDTAVYYCAARGSKPYSNRLLDYWGLGTQVTVSS", "polyreactivity (PSR sort gate)": "high polyreactivity"}
{"sequence": "QVQLVESGGGLVQAGGSLLLSCAASGITFPKYAMGWYRQAPGKERELVAAITKSGGSTYYADSVKGRFTISRDHAKNTVYFQMNSLKPEDTAVYYYAARPRYGEYDYWGQGTQVTVSS", "polyreactivity (PSR sort gate)": "high polyreactivity"}
{"sequence": "QVQLVESGGGLVQAGGSLRLSCAASGRTFAPYALGWYRQAPRKERELVAAITNGGSTSYADSVKGRFTISRDNAKNTVYLQMNSLKPEDTAVYYCAADANRYHRQRWSPYKMYYWGQGTQVTVSS", "polyreactivity (PSR sort gate)": "low polyreactivity"}
{"sequence": "QVQLVESGGGLFQAGGTLRLSCAASGRIFVYYAMGWYRQAPGKERELVASITTGGRTYYADSVKGRFTISRDNAKNTVYLQMNSLKPEDTAVYYCAARKYSYTWYDYWGQGTQVTVSS", "polyreactivity (PSR sort gate)": "high polyreactivity"}
{"sequence": "QVQLVESGGGLVQAGGSLRLSCAASGFIFGGYAMGWYRQAPGKERELVARITRSGGSTYYADSVKGRFTISRDNAKNTVYLQMNSLKPEDTAVYYCNARYGKPAYQYGMDYWGQGTQVTVSS", "polyreactivity (PSR sort gate)": "low polyreactivity"}
{"sequence": "QLQLVESGGVLVQAGGSLRLSCAASGLTFAYYAMGSYRQAPGKERELVAAISWNGGRTYYAYSVKGRFTISRDNAKNTVYLQMNSLKPEDTAVYYCATRFYRPRDGLYDYWGQGTQVTVSS", "polyreactivity (PSR sort gate)": "high polyreactivity"}
{"sequence": "QVQLVESGGGLVQAGGSLRLSCAASGRIFVPYAMGWYRPAPGKERELVAAITWRGGRTYYADSVKGRFTISRDNAKNTVYLQMNSLKPEDTAVYYWAARGWTVTERYYWGQGTQVTVSS", "polyreactivity (PSR sort gate)": "high polyreactivity"}
{"sequence": "QVQLVESGGGLVQAGGSLRLSCAASGFIYSAYAMGWYRQAPGKERELVAAISYSGGTTYYADSVKGRFTISRDNAKNTVYLQMNSLKPEDTAVYYCAAGVGYWGQGTQVTVSS", "polyreactivity (PSR sort gate)": "high polyreactivity"}
{"sequence": "QVQLVESGGGLVQAGGSLRLSCAASGSTFVYYAMGWYRQAPGKERELVAAIRYSGASTYYADSVKGRFTISRDNAKNTVYLQMNSLKPEDTAVYYCAASSRTFGYKYYYWGQGTQVTVSS", "polyreactivity (PSR sort gate)": "high polyreactivity"}
{"sequence": "QVQLVESGRGIVQAGGSLRLSCAASGSIFGWYAMGWYRQAPGKERELVASNSVTAGSTYYADSVKWRFTISRDNAKNTVYLLMYSLKPVYTAVYYCASDDDTADAVQLFYYWGQGTHVTVSS", "polyreactivity (PSR sort gate)": "low polyreactivity"}
{"sequence": "QVQLVESGGGLVQAGGSLRLSCAASGRTFGKYAMGWYRQAPGKERELVATITRTARTNYADSVKGRFTNSRDNAKNTVYFQMNSLKPEDTAVYYCAKGWPAIYGTYDYWGQGTQVTVSS", "polyreactivity (PSR sort gate)": "high polyreactivity"}
{"sequence": "QVQLVESGGGLVQAGGSLRLSCAASGSTFYFYDMGWYRQAPGKERELVATIDDGGGSTYYADSVKGRFTISRDNAKNTVYLQMNSLKPEDTAVYYCNADDSEYLIYDYWGQGTQVTVSS", "polyreactivity (PSR sort gate)": "low polyreactivity"}
{"sequence": "QVQLVESGGGLVQAGGSLRLSCAASGRIFTANAMGWYRQAPGKERELVAAITSGTRTNYADSVKGRFTISRDNAKNTVYLQMNSLKPEDTAVFYCAKETATSKYDYWGQGTQVTVSS", "polyreactivity (PSR sort gate)": "low polyreactivity"}
